Three molecules from patent publication US20230167185A1 (STRIKE PHARMA, published 2023) can be followed below.

The target of test [1] is T1, Mouse CD40 (AcroBiosystems #TN5-M52H8) (mouse, UniProt P27512 24-193).
T1 construct: range 24-193; also called mCD40
The experiment in a line: SPR, captured IgG2, single injection of mCD40.

For test [2], the target named is T2, Biotinylated human CD40 (AcroBiosystems #CD0-H82E8) (human, UniProt P25942 21-193).
T2 construct: also called hCD40-avi; Human CD40-avi; not shown: C-terminal Avi-tag
T2 sequence (P25942 21-193): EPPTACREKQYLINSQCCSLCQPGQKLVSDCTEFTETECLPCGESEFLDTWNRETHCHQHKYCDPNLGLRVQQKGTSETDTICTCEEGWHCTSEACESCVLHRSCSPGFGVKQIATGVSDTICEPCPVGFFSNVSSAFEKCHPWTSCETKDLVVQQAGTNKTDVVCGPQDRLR
Put plainly: SPR, captured IgG2, SCK, 1:1 model. (SPR reads the build-up and loss of mass on a sensor chip optically.)

The target of test [3] is T3, caCD40-Fc (Sino Biological #70105-D02H) (canine, UniProt Q7YRL5 21-194).
T3 construct: also called Canine CD40-Fc; canine CD40; not shown: Fc part of the bought fusion
T3 sequence (looked up): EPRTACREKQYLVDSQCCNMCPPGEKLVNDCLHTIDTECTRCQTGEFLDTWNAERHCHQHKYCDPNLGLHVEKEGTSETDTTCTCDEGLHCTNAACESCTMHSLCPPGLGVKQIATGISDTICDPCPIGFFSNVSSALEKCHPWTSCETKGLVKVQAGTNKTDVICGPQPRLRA
The experiment in a line: SPR, captured IgG2, caCD40-Fc 0.16-100 nM, SCK.

In test [4] the target is T4, Cynomolgus CD40 Fc chimera (R&D Systems #9660-CD) (cynomolgus, UniProt G7PG38 21-193).
T4 construct: range 21-193; also called cCD40-Fc
T4 sequence (G7PG38 entry or part of it mutant): as the sequence (P25942 21-193) above, with G43S, H56R, R70Q, W89L, A95S, L101P, S106L, H142R, L172Q counted along it
The experiment in a line: SPR, captured IgG2, SCK, 1:1 model; apparent KD (appKD), dimeric antigen.

Test [5] deals with T5, Human CD40 Fc chimera (R&D Systems #1493-CDB) (human, UniProt P25942 21-193).
T5 construct: also called hCD40-Fc
T5 sequence (P25942 21-193, change not shown): as the sequence (P25942 21-193) above
The description is as above.

The target in test [6] is T4, Cynomolgus CD40 Fc chimera (R&D Systems …). The experiment in a line: SPR, captured IgG2, SCK, 1:1 model, dimeric antigen.
Test [7] concerns the target T5, Human CD40 Fc chimera (R&D Systems …). The description is as above.
Test [8] deals with human CD40 on cells (CD19+ cells of PBMC; monocyte-derived dendritic cells) (human, UniProt P25942 21-277). Put plainly: cell-based or functional assay.
Sequence of human CD40 on cells (CD19+ cells of PBMC; monocyte-derived dendritic cells) (P25942 21-277 limits assumed): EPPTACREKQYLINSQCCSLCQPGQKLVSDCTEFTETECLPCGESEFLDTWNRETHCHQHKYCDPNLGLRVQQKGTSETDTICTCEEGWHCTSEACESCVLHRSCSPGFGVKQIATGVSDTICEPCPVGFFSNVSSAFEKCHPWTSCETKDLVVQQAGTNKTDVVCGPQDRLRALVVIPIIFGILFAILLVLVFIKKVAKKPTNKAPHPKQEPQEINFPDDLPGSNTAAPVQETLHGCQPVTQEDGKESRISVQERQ

T1 sequence (P27512 24-193 limits assumed): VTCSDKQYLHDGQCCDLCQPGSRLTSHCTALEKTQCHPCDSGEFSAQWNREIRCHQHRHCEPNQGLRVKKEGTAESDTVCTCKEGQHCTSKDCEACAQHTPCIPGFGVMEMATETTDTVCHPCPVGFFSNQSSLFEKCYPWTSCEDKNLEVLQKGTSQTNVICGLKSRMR

B1: Y-SM083-A9 (antibody, human IgG2, kappa, V domains shown)
VH: EVQLLESGGGLVQPGGSLRLSCAASGFTFSSYAMSWVRQAPGKGLEWVSGISGYSGSTYYADSVKGRFTISRDNSKNTLYLQMNSLRAEDTAVYYCARYYSYYGYYYFDYWGQGTLVTVSS
VL: DIQMTQSPSSLSASVGDRVTITCRASQSISSYLNWYQQKPGKAPKLLIYAASSLQSGVPSRFSGSGSGTDFTLTISSLQPEDFATYYCQQGYPYPFTFGQGTKLEIKR
notes: also called A9 antibody; SP9
The koff is the first-order rate constant of dissociation. Lower therefore signals slow dissociation. By kon is commonly meant the rate constant with which the complex forms. The low end stands for slow association, the high end for fast association. Take B1: the binding result in test [1] is “no binding (tested: 80 nM)”; in test [3], “no binding (tested: 100 nM)”. In addition, the figures for the Kd in test [2], in test [4] and in test [5] were 37 nM, 4.5 nM and 5.1 nM, respectively. Further, the values for the off-rate (koff) in test [2], in test [6] and in test [7] were 0.0061 s⁻¹, 0.0022 s⁻¹ and 0.0016 s⁻¹, respectively. Moreover, the kon is 170000 M⁻¹ s⁻¹ in test [2], 500000 M⁻¹ s⁻¹ in test [6] and 310000 M⁻¹ s⁻¹ in test [7].

B2: Y-SM083-B8 (antibody, V domains shown)
VH: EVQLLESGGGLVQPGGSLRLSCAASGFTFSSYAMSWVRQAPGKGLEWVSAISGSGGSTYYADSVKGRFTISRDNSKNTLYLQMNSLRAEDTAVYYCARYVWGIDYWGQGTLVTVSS
VL: DIQMTQSPSSLSASVGDRVTITCRASQSISSYLNWYQQKPGKAPKLLIYAASSLQSGVPSRFSGSGSGTDFTLTISSLQPEDFATYYCQQGYGYPPFTFGQGTKLEIK
With B2, in test [1], the binding result is recorded as “no binding (tested: 80 nM)”. Besides, the Kd came to 15 nM in test [2], 13 nM in test [4] and 13 nM in test [5]. In test [7], this molecule showed a koff of 0.0015 s⁻¹. The kon in test [7] came to 120000 M⁻¹ s⁻¹.

B3: X-SM083-bi-23 (bispecific antibody, human IgG2, kappa)
heavy: EVQLLESGGGLVQPGGSLRLSCAASGFTFSSYAMSWVRQAPGKGLEWVSGISGYSGSTYYADSVKGRFTISRDNSKNTLYLQMNSLRAEDTAVYYCARYYSYYGYYYFDYWGQGTLVTVSSASTKGPSVFPLAPCSRSTSESTAALGCLVKDYFPEPVTVSWNSGALTSGVHTFPAVLQSSGLYSLSSVVTVPSSNFGTQTYTCNVDHKPSNTKVDKTVERKCCVECPPCPAPPVAGPSVFLFPPKPKDTLMISRTPEVTCVVVDVSHEDPEVQFNWYVDGVEVHNAKTKPREEQFNSTFRVVSVLTVVHQDWLNGKEYKCKVSNKGLPAPIEKTISKTKGQPREPQVYTLPPSREEMTKNQVSLTCLVKGFYPSDIAVEWESNGQPENNYKTTPPMLDSDGSFFLYSKLTVDKSRWQQGNVFSCSVMHEALHNHYTQKSLSLSPGKGGGGSGGGGSEVQLLESGGGLVQPGGSLRLSCAASGFTFSNYWMSWVRQAPGKGLEWVSGISGNGGYTYFADSVKDRFTISRDNSKNTLYLQMNSLRAEDTAVYYCAGGDGSGWSFWGQGTLVTVSSGGGGSGGGGSGGGGSGGGGSQSVLTQPPSASGTPGQRVTISCTGSSSNIGAGYDVHWYQQLPGTAPKLLIYGNNNRPSGVPDRFSGSKSGTSASLAISGLRSEDEADYYCAAWDDSLSGRVFGGGTKLTVL
light: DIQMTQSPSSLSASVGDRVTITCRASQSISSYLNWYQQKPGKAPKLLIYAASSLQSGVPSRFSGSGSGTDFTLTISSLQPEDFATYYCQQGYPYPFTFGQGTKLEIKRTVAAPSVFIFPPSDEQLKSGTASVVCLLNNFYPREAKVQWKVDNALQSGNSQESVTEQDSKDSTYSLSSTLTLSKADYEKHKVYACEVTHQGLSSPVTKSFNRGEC
As to B3, the “agonistic activity relative to the parental antibody SP9 (A9) (IL-12 production by MoDCs)” value in test [8] turned out to be 92%.
